Assay results published in US20220372114A1 (CURIA IP, published 2022).
Several values for one entry are separate records, joined by “and”; a condition that tells them apart may be missing. Equal entries are not always repeated.

What was measured:
[1] = molecular target: SARS-CoV-1 spike on pseudovirus (SARS-CoV-1, UniProt P59594 14-1255); test: cell-based or functional assay
SARS-CoV-1 spike trimer [2] = molecular target: T1, SARS-CoV-1 spike trimer (SARS-CoV-1, UniProt P59594 14-1195); test: ELISA, plate-coated SARS-CoV-1 spike
SARS-CoV-1 spike trimer [3] = molecular target: T1, SARS-CoV-1 spike trimer; test: ELISA, plate-coated SARS-CoV-1 spike, purified mouse antibody

Binder	IC50, SARS-CoV-1 pseudovirus ACE2+TMPRSS2+ target cell infection assay [1]	EC50 (SARS-CoV-1 spike trimer [2]) [pM]	EC50 (SARS-CoV-1 spike trimer [3]) [pM]
10-B13-A (human Fc IgG2 chimera) (antibody, V domains shown) VH: QVQLQQSGAELVKPGASVKISCKASGYAFSNYWMNWVKQRPGKGLEWIGQIYPGDGDTNYNGNFKGKATLTADKSSSTAYIQLSSLTSEDSAVYFCGRGFIATVVEVFDHWGLGTTLTVSS VL: DIQMTQTTSSLSASLGDRVTISCRASQDISNYLNWYQQKPDGTVKLLIYYTSRLQSGVPSRFSGSGTGTDYSLTISNLEQEDIATYFCQQGNTLPWTFGGGTKLEIK	~33 ug/ml and ~220 nM		
10-B13-A (antibody, V domains shown) VH: QVQLQQSGAELVKPGASVKISCKASGYAFSNYWMNWVKQRPGKGLEWIGQIYPGDGDTNYNGNFKGKATLTADKSSSTAYIQLSSLTSEDSAVYFCGRGFIATVVEVFDHWGLGTTLTVSS VL: DIQMTQTTSSLSASLGDRVTISCRASQDISNYLNWYQQKPDGTVKLLIYYTSRLQSGVPSRFSGSGTGTDYSLTISNLEQEDIATYFCQQGNTLPWTFGGGTKLEIK		~1000	960
